The test deals with BACINT_01039-CE1 (carbohydrate esterase family 1, acetyl-xylan esterase) (Bacteroides intestinalis DSM 17393) (UniProt B3C975). Briefly: crystal structure; seleno-methionine-labeled BACINT_01039-CE1, 20 mg/mL in 50 mM Tris, 150 mM NaCl pH 7.5; hanging drop; 10 mM ammonium sulfate, 80 mM sodium cacodylate pH 6.5, 21% PEG4000; two molecules in the asymmetric unit as a dimer.

One may read the stoichiometry N as the number of molecules, sites or subunits per partner or assembly. On to “BACINT_01039-CE1 (carbohydrate esterase family 1, acetyl-xylan esterase) (from UniProt B3C975 1-382) (enzyme)”, for which the stoichiometry N came to 2.
